From patent publication US20090136936A1 come the findings set out here.

One may read the Kd as the concentration at which binding is half-saturated.

The target of test [1] is Recombinant human FcγRI/CD64, extracellular domain, glycosylated (human) (UniProt P12314). In words: flow cytometry of spheroplasts displaying the Fc clone, labelled with FcγRIa-FITC; the value is repeated on D00019 and D00020.
The target of test [2] is Protein A-FITC (Staphylococcus aureus) (UniProt P38507). Description: flow cytometry (FL1-Height) of spheroplasts labelled with Protein A-FITC; medium TB, 0.5M Trehalose. For orientation: Flow cytometry measures light scatter and fluorescence of single cells or particles in a stream.
Test [3] has the same target. In words: flow cytometry (FL1-Height) of spheroplasts labelled with Protein A-FITC; medium TB.
Test [4] shares this target. In words: flow cytometry (FL1-Height) of E. coli spheroplasts labelled with Protein A-FITC; APEx displayed Fc [panel a].
Test [5] shares this target. In words: flow cytometry (FL1-Height) of spheroplasts labelled with Protein A-FITC; medium 'TB, 0.5M Soribitol'.
Test [6] concerns the target PA-FITC (PA antigen of Bacillus anthracis) (Bacillus anthracis) (UniProt P13423).
The target in test [7] is Recombinant human FcγRI/CD64, extracellular domain, glycosylated (human) (UniProt P12314). Description: SPR (BIAcore 3000), FcγRIa immobilized on CM-5. (In general: SPR reads the build-up and loss of mass on a sensor chip optically.)
Test [8] addresses Protein A-FITC (Staphylococcus aureus) (UniProt P38507). In words: flow cytometry (FL1-Height) of E. coli spheroplasts labelled with Protein A-FITC; one plasmid, no cJun(Cys) anchor co-expressed [panel b].
The target is the same in test [9]. In words: flow cytometry (FL1-Height) of E. coli spheroplasts labelled with Protein A-FITC; Fc-cFos(Cys) co-expressed with the inner-membrane anchor NlpA-cJun(Cys)-FLAG; the same histogram stands in both panels [panels a and b].
Test [10] shares this target. In words: flow cytometry (FL1-Height) of E. coli spheroplasts labelled with Protein A-FITC; Fc-cFos co-expressed with the inner-membrane anchor NlpA-cJun-FLAG [panel a].
For test [11] the target is unchanged. In words: flow cytometry (FL1-Height) of E. coli spheroplasts labelled with Protein A-FITC; one plasmid, no cJun anchor co-expressed [panel b].
The target is the same in test [12].
For test [13] the target is unchanged. This is another data set of the same source.
The target of test [14] is extracellular domain of glycosylated FcγRIIa (R&D systems), FITC-labeled (human) (UniProt P12318). In words: flow cytometry of spheroplasts displaying the Fc, labelled with FcγRIIa-FITC.
The target in test [15] is Protein A-FITC (Staphylococcus aureus) (UniProt P38507). In words: flow cytometry (FL1-Height) of E. coli spheroplasts labelled with Protein A-FITC; no Fc expressed [panel a].

Values joined by “and” are separate entries in the source; they are usually repeats but may differ in a detail not shown here. Identical values can stand only once. Like-named read-outs stand apart in the source and are kept apart here.

Sequence of PA-FITC (PA antigen of Bacillus anthracis) (Bacillus anthracis) (P13423 30-764 limits assumed): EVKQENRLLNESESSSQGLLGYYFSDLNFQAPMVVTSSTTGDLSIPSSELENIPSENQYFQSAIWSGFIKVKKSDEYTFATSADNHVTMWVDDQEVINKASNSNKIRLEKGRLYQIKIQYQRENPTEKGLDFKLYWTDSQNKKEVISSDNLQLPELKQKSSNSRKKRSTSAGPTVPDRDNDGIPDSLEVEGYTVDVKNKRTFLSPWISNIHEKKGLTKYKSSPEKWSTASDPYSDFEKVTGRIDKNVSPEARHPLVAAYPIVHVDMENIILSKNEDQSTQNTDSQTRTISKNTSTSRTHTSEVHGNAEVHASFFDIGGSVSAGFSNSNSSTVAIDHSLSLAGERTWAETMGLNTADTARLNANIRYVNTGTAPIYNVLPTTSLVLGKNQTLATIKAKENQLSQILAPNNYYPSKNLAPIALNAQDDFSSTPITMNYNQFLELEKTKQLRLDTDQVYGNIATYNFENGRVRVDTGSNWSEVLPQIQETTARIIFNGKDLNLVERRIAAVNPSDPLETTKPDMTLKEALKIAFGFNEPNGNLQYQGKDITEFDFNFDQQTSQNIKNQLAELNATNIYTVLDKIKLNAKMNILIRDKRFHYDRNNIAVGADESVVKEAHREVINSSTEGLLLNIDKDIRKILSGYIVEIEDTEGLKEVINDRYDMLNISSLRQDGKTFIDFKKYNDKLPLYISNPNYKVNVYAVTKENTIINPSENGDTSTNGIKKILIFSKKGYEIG
Sequence of Recombinant human FcγRI/CD64, extracellular domain, glycosylated (human) (P12314 16-292): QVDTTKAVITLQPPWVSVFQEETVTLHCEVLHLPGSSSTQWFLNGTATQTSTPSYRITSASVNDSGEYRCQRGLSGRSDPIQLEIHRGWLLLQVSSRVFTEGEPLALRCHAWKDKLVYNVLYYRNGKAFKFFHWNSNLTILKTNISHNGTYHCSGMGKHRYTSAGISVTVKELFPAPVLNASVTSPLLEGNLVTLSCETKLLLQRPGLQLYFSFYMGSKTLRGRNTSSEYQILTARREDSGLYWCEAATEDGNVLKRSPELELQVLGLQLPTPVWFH
Sequence of extracellular domain of glycosylated FcγRIIa (R&D systems), FITC-labeled (human) (P12318 34-217): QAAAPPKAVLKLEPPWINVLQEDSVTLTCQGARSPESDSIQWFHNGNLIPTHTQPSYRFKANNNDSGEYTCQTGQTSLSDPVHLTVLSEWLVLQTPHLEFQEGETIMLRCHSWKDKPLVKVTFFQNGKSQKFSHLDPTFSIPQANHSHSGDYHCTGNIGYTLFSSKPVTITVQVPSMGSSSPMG

Consider “Fc117 (E382V, M428I, Y436A), aglycosylated Fc mutant (from UniProt P0DOX5 223-449)”, for which the FACS mean value in test [1] was 391. Consider NlpA-Fc-His, for which the Mn (mean fluorescence intensity) in test [2] turned out to be 3130; in test [3] it was 1080; in test [4] it was 2410; in test [5] it was 1290.

26-10 scFv (anti-digoxin) showed a Mn (mean fluorescence intensity) in [6] of 16.3. 26-10 scAb (anti-digoxin): the Mn (mean fluorescence intensity) in test [6] came out at 14.7. For “commercially available glycosylated human IgG1 (antibody)”, in [7], the Kd turned out to be 0.018 µM. For the substance PelB-Fc-cFos(Cys)-His, the results for the Mn (mean fluorescence intensity) in test [8] and in test [9] were 879 and 733, respectively.

In the case of M18.1 humanized IgG1 (antibody), in test [6], the Mn (mean fluorescence intensity) was 164. With M18.1 humanized scFv, the Mn (mean fluorescence intensity) in [6] worked out at 313. With M18.1 humanized scAb, the Mn (mean fluorescence intensity) in [6] came to 277. The substance 26-10 IgG1 (anti-digoxin) (antibody) showed a Mn (mean fluorescence intensity) in test [6] of 13.9. On to PelB-Fc-cFos-His, for which the figures for the Mn (mean fluorescence intensity) in test [10] and in test [11] were 244 and 837, respectively. In the case of M18 scFv (PelB fused, anti-PA), the M (mean fluorescence intensity) in test [12] was 40 and 62.9; in test [13], 43.

In the case of “Fc5 (E382V, M428I), aglycosylated Fc mutant (from UniProt P0DOX5 223-449)”, in test [14], the M (mean fluorescence intensity) was found to be 66.7. In test [15], NlpA-cJun(Cys)-FLAG displayed a Mn (mean fluorescence intensity) of 111.
